Results as given in patent publication US12564623B2, “Methods and compositions for treating cancer” (The University of Chicago, priority 2017, dated 2026).

Experiments:
CD95 = CD95 immunoreactivity and ELANE uptake in non-cancer cells; assay type: cell-based
Procedure: Non-cancer cells were treated with ELANE (50 nM) for 1 hr, fixed in 10% formalin, and stained with N- or C-terminal specific anti-CD95 antibodies. Hoechst 33342 solution was used for nuclear staining. Images were taken under 40×. […] Non-cancer cells were treated with ELANE (100 nM) in the presence or absence of a broad endocytosis inhibitor Dynasore (80 μM) for 30 mins. ELANE catalytic activity in cell lysates was assessed using a chromogenic substrate assay.

Cancer cells = test: Killing program signaling in cancer cells (ERK, NFKB, JNK, ROS, H2AX, CASP3, PARP); assay type: cell-based, Human and mouse; details: 50 nM
Procedure: (FIG. 10A) Cancer cells were treated with ELANE (50 nM) for 4 hrs, and phosphorylated and total ERK, NFKB, and JNK were quantified by western blotting. Immunoblots for E0771 cancer cells are shown as an example. (FIG. 10B) Cancer cells were treated with various doses of ELANE for 1 hr and mitochondrial ROS was measured by flow cytometry using CM-H2DCFDA dye. (FIG. 10C) Cancer cells were treated with ELANE (50 nM) and DNA damage was assessed by immunoblotting for phospho-(γH2AX) and total H2AX. Immunoblots for A549 cancer cells are shown as an example. (FIG. 10D) Cells were treated with ELANE (50 nM) for 8 hrs, and full length and cleaved CASP3 (c-CASP3) and cleaved PARP (c-PARP) were quantified by immunoblotting. Immunoblots for LLC1 cancer cells are shown as an example. *, p<0.05, Student's t-test.
ELANE induces a robust killing program in a variety of cancer cells. Human and mouse cancer cells were treated with ELANE and signaling pathways associated with cancer cell death were assessed. Cells were treated with ELANE (50 nM) for 4 hrs, and phosphorylated and total ERK, NFKB, and JNK were quantified by western blotting. Cells were treated with various doses of ELANE for 1 hr and mitochondrial ROS was measured by flow cytometry using CM-H2DCFDA dye. Cells were treated with ELANE (50 nM) and DNA damage was assessed by western blot for phospho-(γH2AX) and total H2AX. […]

Healthy non-cancer cells = test: Killing program signaling in non-cancer cells; assay type: cell-based, Human and mouse; details: 50 nM
Procedure: (FIG. 11A) Healthy non-cancer cells were treated with ELANE (50 nM) for 4 hrs, and phosphorylated and total ERK, NFKB, and JNK were quantified by immunoblotting. Immunoblots for BMDMs are shown as an example. (FIG. 11B) Cells were treated with various doses of ELANE for 1 hr and mitochondrial ROS was measured by flow cytometry using CM-H2DCFDA dye. (FIG. 11C) Cells were treated with ELANE (50 nM) for 8 hrs, and full length and cleaved CASP3 (c-CASP3) and cleaved PARP (c-PARP) were quantified by immnoblotting. Immunoblots for BMDMs are shown as an example.
The ELANE-induced killing program is not observed in non-cancer cells. Human and mouse non-cancer cells were treated with ELANE and signaling pathways associated with cancer cell death were assessed. Cells were treated with ELANE (50 nM) for 4 hrs, and phosphorylated and total ERK, NFKB, and JNK were quantified by western blotting. Cells were treated with various doses of ELANE for 1 hr and mitochondrial ROS was measured by flow cytometry using CM-H2DCFDA dye. Cells were treated with ELANE (50 nM) for 8 hrs, and full length and cleaved CASP3 and PARP were quantified by western blotting.

E0771 cancer cells = test: E0771 tumors in Rag2-/- versus wild type mice; assay type: in vivo, C57BL/6 mice; details: 11.6 μg intratumorally once/day for 5 days
Procedure: The inventors therefore explored whether ELANE-mediated cancer cell killing could positively influence the immune cells in the tumor. Rag2^−/− mice in C57BL/6 background (no adaptive immunity) and wild type (wt) C57BL/6 mice were both ordered from the Jackson laboratory. E0771 cancer cells were injected into both mouse models. Once tumors reached ˜100 mm^3. ELANE (11.6 μg) or HAS (11.6 μg) were delivered intratumorally once/day for 5 days. Tumor volume was assessed by calipers. Kaplan-Meier curve was plotted and the logrank test (Mentel-Cox method) was used for mouse survival analysis. End point of survival is defined as tumor volume >1000 mm^3.
Adaptive immune cells contribute to ELANE's therapeutic efficacy. Rag2-deficient (Rag2−/−) mice on the C57BL/6 background (no adaptive immunity) and wild type (wt) C57BL/6 mice were injected with E0771 cancer cells. Once tumors reached ˜100 mm^3. ELANE (11.6 μg) or HSA (11.6 μg) were delivered intra-tumorally once/day for 5 days. (FIG. 18A) Tumor volume was assessed by calipers. (FIG. 18B) Kaplan-Meier curve was plotted and the logrank test (Mentel-Cox method) was used for survival analysis. End point of survival is defined as tumor volume >1000 mm^3.

B1: neutrophil elastase (protein, listed as Homo sapiens)
chain: MTLGRRLACLFLACVLPALLLGGTALASEIVGGRRARPHAWPFMVSLQLRGGHFCGATLIAPNFVMSAAHCVANVNVRAVRVVLGAHNLSRREPTRQVFAVQRIFENGYDPVNLLNDIVILQLNGSATINANVQVAQLPAQGRRLGNGVQCLAMGWGLLGRNRGIASVLQELNVTVVTSLCRRSNVCTLVRGRQAGVCFGDSGSPLVCNGLIHGIASFVRGGCASGLYPDAFAPVAQFVNWIDSIIQRSEDNPCPHPRDPDPASRTH
notes: purified native ELANE
CD95 immunoreactivity of non-cancer cells (CD95; 50 nM, 1 hr): loss of immunoreactivity with a C-terminal specific antibody | uptake by non-cancer cells (CD95; 100 nM, 30 mins): internalized by non-cancer cells | killing program in cancer cells (Cancer cells): induces a robust killing program in cancer cells | killing program in healthy non-cancer cells (Healthy non-cancer cells): does not induce a robust killing program in healthy non-cancer cells | efficacy in immune competent versus adaptive immunity deficient mice (E0771 cancer cells): more efficacious than adaptive immunity deficient mice
